Data published in patent US20120238493A1 (INDIANA UNIVERSITY RESEARCH AND TECHNOLOGY, published 2012).
Where two headings read alike, the source gives them in different places. *1 amine or outer side, *2 acyl side, *3 side chain or, on linkers, in order; H or OH if unused. Where no end group is shown, it is not given here. Side-chain parts run from the residue outwards. [ ]: non-standard residue; d: D form. The star is where a group is joined. γGlu = O=C(O)[C@H](CCC(=O)[*:2])N[*:1]; Palmitoyl = CCCCCCCCCCCCCCCC(=O)*; Aib = CC(C)(N)C(=O)O

Columns and labels:
Assay in all cases: cell-based or functional assay
[1] = target: T1, GIP receptor (UniProt P48546 22-466, limits assumed)
T1 sequence (looked up): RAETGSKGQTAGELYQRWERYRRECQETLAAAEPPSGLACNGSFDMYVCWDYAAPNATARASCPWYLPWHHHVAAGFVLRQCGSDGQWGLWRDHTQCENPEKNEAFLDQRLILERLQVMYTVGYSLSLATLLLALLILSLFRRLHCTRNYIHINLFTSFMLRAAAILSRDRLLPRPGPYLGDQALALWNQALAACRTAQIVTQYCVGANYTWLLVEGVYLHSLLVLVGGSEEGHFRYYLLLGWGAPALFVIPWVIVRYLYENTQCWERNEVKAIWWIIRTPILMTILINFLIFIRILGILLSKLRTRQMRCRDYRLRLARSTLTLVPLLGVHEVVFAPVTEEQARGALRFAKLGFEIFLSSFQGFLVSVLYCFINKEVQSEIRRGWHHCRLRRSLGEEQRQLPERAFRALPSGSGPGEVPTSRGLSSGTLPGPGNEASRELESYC

[2] = target: T1, GIP receptor; remark: listed apart in the source
[3] = target: T1, GIP receptor; remark: listed apart in the source
[4] = target: T2, glucagon receptor (UniProt P47871 26-477, limits assumed)
T2 sequence (P47871 26-477 limits assumed): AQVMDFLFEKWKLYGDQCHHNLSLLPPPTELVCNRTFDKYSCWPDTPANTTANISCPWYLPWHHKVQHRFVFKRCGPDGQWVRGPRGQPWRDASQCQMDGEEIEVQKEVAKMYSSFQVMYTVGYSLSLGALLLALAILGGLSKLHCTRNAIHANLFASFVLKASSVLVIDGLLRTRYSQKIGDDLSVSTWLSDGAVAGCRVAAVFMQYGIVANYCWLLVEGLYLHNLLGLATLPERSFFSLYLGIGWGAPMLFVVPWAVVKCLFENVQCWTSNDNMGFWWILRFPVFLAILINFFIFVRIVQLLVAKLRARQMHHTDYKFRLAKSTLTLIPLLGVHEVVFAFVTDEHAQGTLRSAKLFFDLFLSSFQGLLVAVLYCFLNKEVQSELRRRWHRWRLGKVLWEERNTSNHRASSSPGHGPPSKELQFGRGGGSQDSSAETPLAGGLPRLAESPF

[5] = target: T3, GLP-1 receptor (UniProt P43220 24-463, limits assumed)
[6] = target: T1, GIP receptor; remark: listed apart in the source
[7] = target: T2, glucagon receptor; remark: listed apart in the source
[8] = target: T3, GLP-1 receptor; remark: listed apart in the source
[9] = target: T1, GIP receptor; remark: listed apart in the source
[10] = target: T2, glucagon receptor; remark: listed apart in the source
[11] = target: T3, GLP-1 receptor; remark: listed apart in the source
[12] = target: T1, GIP receptor; remark: listed apart in the source
[13] = target: T2, glucagon receptor; remark: listed apart in the source
[14] = target: T3, GLP-1 receptor; remark: listed apart in the source
Target sequence in this assay (P43220 24-463 limits assumed): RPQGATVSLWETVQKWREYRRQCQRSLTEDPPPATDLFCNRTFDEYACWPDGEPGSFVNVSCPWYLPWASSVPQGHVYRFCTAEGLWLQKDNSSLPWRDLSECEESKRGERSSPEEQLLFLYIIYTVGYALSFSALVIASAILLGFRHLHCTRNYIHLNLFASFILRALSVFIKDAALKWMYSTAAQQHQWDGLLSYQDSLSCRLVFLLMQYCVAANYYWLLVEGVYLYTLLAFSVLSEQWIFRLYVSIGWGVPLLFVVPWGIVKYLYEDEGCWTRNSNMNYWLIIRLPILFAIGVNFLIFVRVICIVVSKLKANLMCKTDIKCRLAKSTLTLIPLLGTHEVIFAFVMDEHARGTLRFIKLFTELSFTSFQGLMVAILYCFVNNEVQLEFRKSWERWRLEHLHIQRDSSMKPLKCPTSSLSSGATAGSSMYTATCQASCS

[15] = target: T1, GIP receptor; remark: listed apart in the source
[16] = target: T2, glucagon receptor; remark: listed apart in the source
[17] = target: T3, GLP-1 receptor; remark: listed apart in the source
[18] = target: T1, GIP receptor; remark: listed apart in the source
[19] = target: T2, glucagon receptor; remark: listed apart in the source
[20] = target: T3, GLP-1 receptor; remark: listed apart in the source
[21] = target: T1, GIP receptor; remark: listed apart in the source
[22] = target: T2, glucagon receptor; remark: listed apart in the source
[23] = target: T3, GLP-1 receptor; remark: listed apart in the source
[24] = target: T1, GIP receptor; remark: listed apart in the source
[25] = target: T2, glucagon receptor; remark: listed apart in the source
[26] = target: T3, GLP-1 receptor; remark: listed apart in the source

## Native GIP (SEQ ID NO: 2) (from UniProt P09681 52-93) (ligand)
[1]
  EC50 (cAMP reporter): 10 pM
[2]
  EC50 (cAMP reporter): 6.5 pM

B1: Glucagon Aib2, K9(rErEC16), Aib16, amide (SEQ ID NO: 43) (peptide)
peptide: H[Aib]QGTFTSKYSKYLD[Aib]RRAQDFVQWLMNT-NH2
modifications: not fully specified (residue 9)
[3]
  EC50 (cAMP reporter): 15100 pM
[4]
  EC50 (cAMP reporter): 1150 pM
[5]
  EC50 (cAMP reporter): 232 pM

B2: Analog No. 63: Aib2, E3, K10acyl, E16, L27, D28, G29 + CEX (SEQ ID NO: 39) (peptide)
peptide: H[Aib]EGTFTSDK([γGlu-Palmitoyl])SKYLDERAAQDFVQWLLDGGPSSGAPPPS-NH2
modifications: N-terminus assumed
SMILES: CCCCCCCCCCCCCCCC(=O)N[C@@H](CCC(=O)NCCCC[C@H](NC(=O)[C@H](CC(=O)O)NC(=O)[C@H](CO)NC(=O)[C@@H](NC(=O)[C@H](Cc1ccccc1)NC(=O)[C@@H](NC(=O)CNC(=O)[C@H](CCC(=O)O)NC(=O)C(C)(C)NC(=O)[C@@H](N)Cc1c[nH]cn1)[C@@H](C)O)[C@@H](C)O)C(=O)N[C@@H](CO)C(=O)N[C@@H](CCCCN)C(=O)N[C@@H](Cc1ccc(O)cc1)C(=O)N[C@@H](CC(C)C)C(=O)N[C@@H](CC(=O)O)C(=O)N[C@@H](CCC(=O)O)C(=O)N[C@@H](CCCNC(=N)N)C(=O)N[C@@H](C)C(=O)N[C@@H](C)C(=O)N[C@@H](CCC(N)=O)C(=O)N[C@@H](CC(=O)O)C(=O)N[C@@H](Cc1ccccc1)C(=O)N[C@H](C(=O)N[C@@H](CCC(N)=O)C(=O)N[C@@H](Cc1c[nH]c2ccccc12)C(=O)N[C@@H](CC(C)C)C(=O)N[C@@H](CC(C)C)C(=O)N[C@@H](CC(=O)O)C(=O)NCC(=O)NCC(=O)N1CCC[C@H]1C(=O)N[C@@H](CO)C(=O)N[C@@H](CO)C(=O)NCC(=O)N[C@@H](C)C(=O)N1CCC[C@H]1C(=O)N1CCC[C@H]1C(=O)N1CCC[C@H]1C(=O)N[C@@H](CO)C(N)=O)C(C)C)C(=O)O
[6]
  activity (cAMP reporter), column GIP: 0.026
[7]
  activity (cAMP reporter), column Glu: 1.28
[8]
  activity (cAMP reporter), column GLP: 0.008
[9]
  EC50 (cAMP reporter): 26 pM
[10]
  EC50 (cAMP reporter): 1280 pM
[11]
  EC50 (cAMP reporter): 8 pM

B3: peptide of SEQ ID NO: 230 (peptide)
peptide: H[Aib]QGTFTSDYSIYLDEKRAKEFVCWLLAGGPSSGAPPPSK-NH2
modifications: N-terminus assumed
SMILES: CC[C@H](C)[C@H](NC(=O)[C@H](CO)NC(=O)[C@H](Cc1ccc(O)cc1)NC(=O)[C@H](CC(=O)O)NC(=O)[C@H](CO)NC(=O)[C@@H](NC(=O)[C@H](Cc1ccccc1)NC(=O)[C@@H](NC(=O)CNC(=O)[C@H](CCC(N)=O)NC(=O)C(C)(C)NC(=O)[C@@H](N)Cc1c[nH]cn1)[C@@H](C)O)[C@@H](C)O)C(=O)N[C@@H](Cc1ccc(O)cc1)C(=O)N[C@@H](CC(C)C)C(=O)N[C@@H](CC(=O)O)C(=O)N[C@@H](CCC(=O)O)C(=O)N[C@@H](CCCCN)C(=O)N[C@@H](CCCNC(=N)N)C(=O)N[C@@H](C)C(=O)N[C@@H](CCCCN)C(=O)N[C@@H](CCC(=O)O)C(=O)N[C@@H](Cc1ccccc1)C(=O)N[C@H](C(=O)N[C@@H](CS)C(=O)N[C@@H](Cc1c[nH]c2ccccc12)C(=O)N[C@@H](CC(C)C)C(=O)N[C@@H](CC(C)C)C(=O)N[C@@H](C)C(=O)NCC(=O)NCC(=O)N1CCC[C@H]1C(=O)N[C@@H](CO)C(=O)N[C@@H](CO)C(=O)NCC(=O)N[C@@H](C)C(=O)N1CCC[C@H]1C(=O)N1CCC[C@H]1C(=O)N1CCC[C@H]1C(=O)N[C@@H](CO)C(=O)N[C@@H](CCCCN)C(N)=O)C(C)C
[12]
  EC50 (cAMP reporter): 164 pM
[13]
  EC50 (cAMP reporter): 1640 pM
[14]
  EC50 (cAMP reporter): 222 pM

B4: Analog No. 30: Aib2, K10acyl, E16, A18, L27, D28, G29 + CEX (SEQ ID NO: 28) (peptide)
peptide: H[Aib]QGTFTSDK([γGlu-Palmitoyl])SKYLDERAAQDFVQWLLDGGPSSGAPPPS-NH2
[6]
  activity (cAMP reporter), column GIP: 0.003
[7]
  activity (cAMP reporter), column Glu: 0.002
[8]
  activity (cAMP reporter), column GLP: 0.002
[15]
  EC50 (cAMP reporter): 2 pM
[16]
  EC50 (cAMP reporter): 2 pM
[17]
  EC50 (cAMP reporter): 2 pM
[18]
  EC50 (cAMP, nmole): 0.007 nmol
[19]
  EC50 (cAMP, nmole): 0.004 nmol
[20]
  EC50 (cAMP, nmole): 0.003 nmol
[9]
  EC50 (cAMP reporter): 3 pM
[10]
  EC50 (cAMP reporter): 2 pM
[11]
  EC50 (cAMP reporter): 2 pM
[21]
  EC50 (cAMP reporter): 3 pM
[22]
  EC50 (cAMP reporter): 2 pM
[23]
  EC50 (cAMP reporter): 2 pM
[24]
  EC50 (cAMP reporter): 4 pM
[25]
  EC50 (cAMP reporter): 3 pM
[26]
  EC50 (cAMP reporter): 4 pM

B5: Glucagon Aib2, Aib16, amide (SEQ ID NO: 42) (peptide)
peptide: H[Aib]QGTFTSDYSKYLD[Aib]RRAQDFVQWLMNT-NH2
modifications: N-terminus assumed
SMILES: CSCC[C@H](NC(=O)[C@H](CC(C)C)NC(=O)[C@H](Cc1c[nH]c2ccccc12)NC(=O)[C@H](CCC(N)=O)NC(=O)[C@@H](NC(=O)[C@H](Cc1ccccc1)NC(=O)[C@H](CC(=O)O)NC(=O)[C@H](CCC(N)=O)NC(=O)[C@H](C)NC(=O)[C@H](CCCNC(=N)N)NC(=O)[C@H](CCCNC(=N)N)NC(=O)C(C)(C)NC(=O)[C@H](CC(=O)O)NC(=O)[C@H](CC(C)C)NC(=O)[C@H](Cc1ccc(O)cc1)NC(=O)[C@H](CCCCN)NC(=O)[C@H](CO)NC(=O)[C@H](Cc1ccc(O)cc1)NC(=O)[C@H](CC(=O)O)NC(=O)[C@H](CO)NC(=O)[C@@H](NC(=O)[C@H](Cc1ccccc1)NC(=O)[C@@H](NC(=O)CNC(=O)[C@H](CCC(N)=O)NC(=O)C(C)(C)NC(=O)[C@@H](N)Cc1c[nH]cn1)[C@@H](C)O)[C@@H](C)O)C(C)C)C(=O)N[C@@H](CC(N)=O)C(=O)N[C@H](C(N)=O)[C@@H](C)O
[3]
  EC50 (cAMP reporter): 104000 pM
[4]
  EC50 (cAMP reporter): 309 pM
[5]
  EC50 (cAMP reporter): 437 pM

B6: peptide of SEQ ID NO: 89 (peptide)
peptide: H[Aib]QGTFTSDYSKYLDERAAQDFVQWLLDGGPSSGAPPPSK([γGlu-γGlu-Palmitoyl])G-NH2
modifications: not fully specified
[15]
  EC50 (cAMP reporter): 20 pM
[16]
  EC50 (cAMP reporter): 4 pM
[17]
  EC50 (cAMP reporter): 4 pM
[21]
  EC50 (cAMP reporter): 24 pM
[22]
  EC50 (cAMP reporter): 4.1 pM
[23]
  EC50 (cAMP reporter): 2.1 pM
[24]
  EC50 (cAMP reporter): 28 pM
[25]
  EC50 (cAMP reporter): 6 pM
[26]
  EC50 (cAMP reporter): 5 pM

B7: Glucagon Aib2, K12(rErEC16), Aib16, amide (SEQ ID NO: 45) (peptide)
peptide: H[Aib]QGTFTSDYSKYLD[Aib]RRAQDFVQWLMNT-NH2
modifications: not fully specified (residue 12)
[3]
  EC50 (cAMP reporter): 651 pM
[4]
  EC50 (cAMP reporter): 42.5 pM
[5]
  EC50 (cAMP reporter): 20.5 pM

B8: peptide of SEQ ID NO: 171 (peptide)
peptide: H[Aib]EGTFTSDYSKYLDERAAQDFVQWLLDGGPSSGAPPPSK([γGlu-γGlu-Palmitoyl])G-NH2
[15]
  EC50 (cAMP reporter): 38 pM
[16]
  EC50 (cAMP reporter): 455 pM
[17]
  EC50 (cAMP reporter): 5 pM
